Consider three substances from article PMC8473724.

One assay concerns the target GRB2 (UniProt P62993). As to the kind of experiment: anti-Myc co-IP, anti-GRB2 immunoblot. The note with it: reference: CD22-Myc wild type; sites Y807. On the technique in general: In western blotting, separated proteins are transferred to a membrane and probed.
In the next assay the target is TNK2. Kind of assay: anti-FLAG co-immunoprecipitation, SILAC LC-MS. The note with it: Ramos PTP1B KO cells; n = 3; read off a plot; scale: log10 SILAC ratio.
The next assay has as its target ARHGAP12 iso 2. As to the kind of experiment: anti-FLAG co-immunoprecipitation, SILAC LC-MS. The note with it: Ramos PTP1B KO cells; n = 3; read off a plot; scale: log10 SILAC ratio.
The next assay addresses CDC20. Kind of assay: anti-FLAG co-immunoprecipitation, SILAC LC-MS. To be noted: Ramos PTP1B KO cells; n = 3; read off a plot; scale: log10 SILAC ratio.
The target in the next assay is PTRH2. As to the kind of experiment: anti-FLAG co-immunoprecipitation, SILAC LC-MS. To be noted: Ramos PTP1B KO cells; n = 3; read off a plot; scale: log10 SILAC ratio.
The next assay deals with ARHGAP12 iso 3. As to the kind of experiment: anti-FLAG co-immunoprecipitation, SILAC LC-MS. The note with it: Ramos PTP1B KO cells; n = 3; read off a plot; scale: log10 SILAC ratio.
In the next assay the target is ANKLE2. Kind of assay: anti-FLAG co-immunoprecipitation, SILAC LC-MS. The note with it: Ramos PTP1B KO cells; n = 3; read off a plot; scale: log10 SILAC ratio.
In assay [1] the target is intersectin-2 (ITSN2) [human (endogenous in Ramos)]. Kind of assay: anti-FLAG co-immunoprecipitation, SILAC LC-MS. To be noted: Ramos PTP1B KO cells; n = 3; read off a plot; scale: log10 SILAC ratio.

In the case of CD22 (from UniProt P20273) Y807F, in the assay with GRB2, the “binding against the reference” value is “lost”.
As for “FLAG-PTP1B WT (protein tyrosine phosphatase 1B) (from UniProt P18031) D181A; Y46F”, the enrichment turned out to be 0.6 with TNK2; 1.6 with ARHGAP12 iso 2; 0.88 in the assay with CDC20; 1.4 with PTRH2; 1.2 with ARHGAP12 iso 3; 0.97 in the assay with ANKLE2.
In the case of “FLAG-PTP1B WT (protein tyrosine phosphatase 1B) mutant D181A; Y46F [not stated] / intersectin-2 (ITSN2) [human (endogenous in Ramos)] chain 1 Y46F, chain 1 D181A”, the enrichment in assay [1] was 0.5.
